Results: publication PMC5472179 (Nature Communications, 2017)
Ends that are not written are not given here. * marks the point of attachment. FITC = O=C1OC2(c3ccc(O)cc3Oc3cc(O)ccc32)c2ccc(NC(=S)*)cc21

B1: eVP30_(110–272) (domain or fragment)
chain: GSVEQQLNITAPKDSRLANPTADDFQQEEGPKITLLTLIKTAEHWARQDIRTIEDSKLRALLTLCAVMTRKFSKSQLSLLCETHLRREGLGQDQAEPVLEVYQRLHSDKGGSFEAALWQQWDRQSLIMFITAFLNIALQLPCESSAVVVSGLRTLVPQSDNEE

Experiments:
SEC-MALS = target: the molecule itself; assay: SEC-MALS
eVP30_(110–272) [1] = target: B1; assay: fluorescence polarisation; settings: both partners purified
eVP30_(110–272) [2] = target: B1; assay: ITC; settings: both partners purified
eVP30_(110–272) [3] = target: B1; assay: SEC-MALS; settings: both partners purified

In the case of B1, the “stoichiometry N” value (SEC-MALS) is reported as 2.

RTPTVAPPAPVYRDHS [eVP30BP (unlabelled)]: binds (eVP30_(110–272) [1]).

B2: eNP_(600–739) (domain or fragment)
chain: RTPTVAPPAPVYRDHSEKKELPQDEQQDQDHTQEARNQDSDNTQSEHSFEEMYRHILRSQGPFDAVLYYHMMKDEPVVFSTSDGKEYTYPDSLEEEYPPWLTEKEAMNEENRFVTLDGQQFYWPVMNHKNKFMAILQHHQ
For B2, the Kd (eVP30_(110–272) [2]) was 3.75 µM, the “stoichiometry N” value (eVP30_(110–272) [2]) was 0.8 and the “stoichiometry N” value (eVP30_(110–272) [3]) was 1.

{FITC}-RTPTVAPPAPVYRDHS [FITC-eVP30BP]: binds (eVP30_(110–272) [1]).
